Test results from US20090035321A1, “Intercellular adhesion molecules and their binding ligands” (Boehringer Ingelheim Pharmaceuticals, Inc., published 2009).

Experiments:
Test in all cases: COS cells on LFA-1 coated plastic
ICAM-1 R13G/EA = ICAM-1 R13G/EA (human, UniProt P05362)
ICAM-1 D71GQS/NGEL = ICAM-1 D71GQS/NGEL (human, UniProt P05362)
ICAM-1 S74/A = ICAM-1 S74/A (human, UniProt P05362)
ICAM-1 V136GE/GVK = ICAM-1 V136GE/GVK (human, UniProt P05362)
ICAM-1 R125/E = ICAM-1 R125/E (human, UniProt P05362)
ICAM-1 Y66/T = ICAM-1 Y66/T (human, UniProt P05362)
ICAM-1 R13/K = ICAM-1 R13/K (human, UniProt P05362)
ICAM-1 S3/T = ICAM-1 S3/T (human, UniProt P05362)
ICAM-1 R13/Q = ICAM-1 R13/Q (human, UniProt P05362)
ICAM-1 N68/K = ICAM-1 N68/K (human, UniProt P05362)
ICAM-1 E59/K = ICAM-1 E59/K (human, UniProt P05362)
ICAM-1 Y52/FA = ICAM-1 Y52/FA (human, UniProt P05362)
ICAM-1 G46NN/ASI = ICAM-1 G46NN/ASI (human, UniProt P05362)
ICAM-1 N103/K = ICAM-1 N103/K (human, UniProt P05362)
ICAM-1 E34/A = ICAM-1 E34/A (human, UniProt P05362)
ICAM-1 L91/A = ICAM-1 L91/A (human, UniProt P05362)
ICAM-1 G15/SA = ICAM-1 G15/SA (human, UniProt P05362)
ICAM-1 E90/Q = ICAM-1 E90/Q (human, UniProt P05362)
ICAM-1 E87/K = ICAM-1 E87/K (human, UniProt P05362)
ICAM-1 A189T/SI = ICAM-1 A189T/SI (human, UniProt P05362)
ICAM-1 D60/N = ICAM-1 D60/N (human, UniProt P05362)
[1] = target: ICAM-1 N269QSQI/IQAEQ (human) (UniProt P05362)
ICAM-1 Q73/T = ICAM-1 Q73/T (human, UniProt P05362)
ICAM-1 Q27/L = ICAM-1 Q27/L (human, UniProt P05362)
ICAM-1 Q1/E = ICAM-1 Q1/E (human, UniProt P05362)
ICAM-1 Y52/F = ICAM-1 Y52/F (human, UniProt P05362)
ICAM-1 S24/A = ICAM-1 S24/A (human, UniProt P05362)
ICAM-1 N48/H = ICAM-1 N48/H (human, UniProt P05362)
ICAM-1 K77T/ES = ICAM-1 K77T/ES (human, UniProt P05362)
ICAM-1 V4/G = ICAM-1 V4/G (human, UniProt P05362)
ICAM-1 K40/A = ICAM-1 K40/A (human, UniProt P05362)
ICAM-1 N175/A = ICAM-1 N175/A (human, UniProt P05362)
ICAM-1 R149RD/EEG = ICAM-1 R149RD/EEG (human, UniProt P05362)
ICAM-1 Y83/S = ICAM-1 Y83/S (human, UniProt P05362)
ICAM-1 D213GL/HGV = ICAM-1 D213GL/HGV (human, UniProt P05362)

Q: “purified LFA-1, bound to plastic (from UniProt P20701) (receptor)” was tested. Which LFA-1 Binding % (% of wild type) (ICAM-1 R13G/EA) did it give?
A: 2

Q: What about the LFA-1 Binding % (% of wild type) (ICAM-1 D71GQS/NGEL) of the same substance?
A: 1

Q: What about the LFA-1 Binding % (% of wild type) (ICAM-1 S74/A) of the same substance?
A: 70

Q: What about the LFA-1 Binding % (% of wild type) (ICAM-1 V136GE/GVK) of the same substance?
A: 92

Q: What about the LFA-1 Binding % (% of wild type) (ICAM-1 R125/E) of the same substance?
A: 81

Q: And the LFA-1 Binding % (% of wild type) (ICAM-1 Y66/T)?
A: 135

Q: And the LFA-1 Binding % (% of wild type) (ICAM-1 R13/K)?
A: 98

Q: What about the LFA-1 Binding % (% of wild type) (ICAM-1 S3/T) of the same substance?
A: 149

Q: What about the LFA-1 Binding % (% of wild type) (ICAM-1 R13/Q) of the same substance?
A: 78

Q: What about the LFA-1 Binding % (% of wild type) (ICAM-1 N68/K) of the same substance?
A: 101

Q: And the LFA-1 Binding % (% of wild type) (ICAM-1 E59/K)?
A: 134

Q: And the LFA-1 Binding % (% of wild type) (ICAM-1 Y52/FA)?
A: 138

Q: What about the LFA-1 Binding % (% of wild type) (ICAM-1 G46NN/ASI) of the same substance?
A: 49

Q: What about the LFA-1 Binding % (% of wild type) (ICAM-1 N103/K) of the same substance?
A: 12

Q: What about the LFA-1 Binding % (% of wild type) (ICAM-1 E34/A) of the same substance?
A: 0

Q: And the LFA-1 Binding % (% of wild type) (ICAM-1 L91/A)?
A: 87

Q: And the LFA-1 Binding % (% of wild type) (ICAM-1 G15/SA)?
A: 120

Q: And the LFA-1 Binding % (% of wild type) (ICAM-1 E90/Q)?
A: 122

Q: And the LFA-1 Binding % (% of wild type) (ICAM-1 E87/K)?
A: 65

Q: What about the LFA-1 Binding % (% of wild type) (ICAM-1 A189T/SI) of the same substance?
A: 91

Q: And the LFA-1 Binding % (% of wild type) (ICAM-1 D60/N)?
A: 92

Q: What about the LFA-1 Binding % (% of wild type) [1] of the same substance?
A: 101

Q: What about the LFA-1 Binding % (% of wild type) (ICAM-1 Q73/T) of the same substance?
A: 40

Q: What about the LFA-1 Binding % (% of wild type) (ICAM-1 Q27/L) of the same substance?
A: 37

Q: And the LFA-1 Binding % (% of wild type) (ICAM-1 Q1/E)?
A: 175

Q: What about the LFA-1 Binding % (% of wild type) (ICAM-1 Y52/F) of the same substance?
A: 72

Q: What about the LFA-1 Binding % (% of wild type) (ICAM-1 S24/A) of the same substance?
A: 80

Q: And the LFA-1 Binding % (% of wild type) (ICAM-1 N48/H)?
A: 88

Q: And the LFA-1 Binding % (% of wild type) (ICAM-1 K77T/ES)?
A: 87

Q: What about the LFA-1 Binding % (% of wild type) (ICAM-1 V4/G) of the same substance?
A: 64

Q: And the LFA-1 Binding % (% of wild type) (ICAM-1 K40/A)?
A: 124

Q: And the LFA-1 Binding % (% of wild type) (ICAM-1 N175/A)?
A: 67

Q: What about the LFA-1 Binding % (% of wild type) (ICAM-1 R149RD/EEG) of the same substance?
A: 81

Q: What about the LFA-1 Binding % (% of wild type) (ICAM-1 Y83/S) of the same substance?
A: 42

Q: And the LFA-1 Binding % (% of wild type) (ICAM-1 D213GL/HGV)?
A: 90
